Measured values from patent US20050069542A1 (Human Genome Sciences, published 2005).

T1: flag-tagged soluble TL3 (amino acids 105-251 of SEQ ID NO:234) (Homo sapiens (Human), UniProt O75888 105-250)
T1 construct: Heterologous flag-tagged control protein, immobilized in the ELISA; also called flagged tagged TL-3; not shown: Flag tag
T1 sequence: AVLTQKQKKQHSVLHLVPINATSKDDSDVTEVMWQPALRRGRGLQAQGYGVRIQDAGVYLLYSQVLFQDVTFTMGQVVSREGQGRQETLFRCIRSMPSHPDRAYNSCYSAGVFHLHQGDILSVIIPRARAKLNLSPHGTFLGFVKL


Target: T1, flag-tagged soluble TL3 (amino acids …)
Test: phage ELISA on immobilized flag-tagged soluble TL3
Method in brief: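 Phage displaying scFvs selected against flag-tagged GMAD were screened by ELISA against immobilized flag-tagged soluble TL3 (residues 105-251) as a heterologous flag-tagged counter-target, to check that binding is GMAD-specific.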

Row | binding result | Binder
1 | no binding | GMCC106 (scFv) scFv: QVQLQESGPGLVKPSGTLSLTCAVSVGSINESNWWSWVRQSPGKGLEWIGEIYPTGTTNYNPSLESRVTISVDKSRNLFSLKLKSVTAADSAMYFCARDRWAGGFDLWGRGTMVTVSSGGGGSGGGGSGGGGSAQSVLTQPPSASGTPGQRVTISCSGSSSNIGSNSVYWYQQLPGTAPKLLIYRNNQRPSGVPDRFSASKSGTSASLAISGLRSEDEADYYCAAWDDSLSGLVFGGGTKLTVLG
2 | no binding | GMBC609 (scFv) scFv: QVQLVESGGGLVKPGESLRLSCEASGFEFNYAWMSWVRQAPGKGLEWVGRSRSEASGGTTDYAAPLQDRFTISRDDSKNTLYLQVNSLKIEDTGVYFCKWEKSEYYGMDVWGRGTPVTVSSGGGGSGGGGSGGGGSQSVLTQPPSVSAAPGQKVTISCSGSTSNIGNNYVSWYQQHPGKAPKLMIYDVSKRPSGVPDRFSGSKSGNSASLDISGLQSEDEADYYCAAWDDSLSEFLFGTGTKLTVLG
3 | no binding | GMBC666 (scFv) scFv: EVQLVESGGGLAKPGESLRLSCEASGFEFNYAWMSWVRQAPGKGLEWVGRSRSEASGGTTDYAAPLQDRFTISRDDSKNTLYLQVNSLKIEDTGVYFCKWEKSEYYGMDVWGKGTMVTVSSGGGGSGGGGSGGGGSQSVLTQPPSVSAAPGQKVTISCSGSTSNIGNNYVSWYQQHPGKAPKLMIYDVSKRPSGVPDRFSGSKSGNSASLDISGLQSEDEADYYCAAWDDSLSEFLFGTGTKLTVLG
4 | no binding | GMBC730 (scFv) scFv: QVQLVESGGDSVKPGGSLRLSCAGSGFTFSDAWMNWVRQAPGKGLEWVGRMKSKGSGGTRDYAAPVNGRFTISRDDSKNTLYLQMNSLNTEDTGVYYCTWDWDFYYGMDVWGKGTTVTVSSGGGGSGGGGSGGGGSQSVLTQPASVSGSPGQSITISCTGTSSDVGGYNYVSWYQQHPGKAPKLMIYEGSKRPSGVSNRFSGSKSGNTASLTISGLQAEDEADYYCSSYTTRSTRVFGGGTKLTVLG
5 | no binding | GMBC687 (scFv) scFv: QVQLVQSGAEVKKPGSSVKVSCKAPGDTFSNYIFNWVRQAPGQGLEWMGGIIPKFGTVNDAHKFQDRVTIAADESTNTASMELSSLTSEDTAVYYCACEPIPKDYGDVNGLEIWGKGTMVTVSSGGGGSGGGGSGGGGSDIQMTQSPSTLSASIGDRVTITCRASEGIYHWLAWYQQKPGKAPKLLIYKASSLASGAPSRFSGSGSGTDFTLTISSLQPDDFATYYCQQYSNYPLTFGGGTKLEIKR
6 | no binding | GMBC662 (scFv) scFv: GVQLVQSGAEVKKPGSSVKVSCKASGGTFSSYTISWVRQAPGQGLEWMGRIIPILGIANYAQKFQGRVTITADKSTSTAYMELSSLRSEDTAVYYCAREKLRDFQHWGQGTLVTVSSGGGGSGGGGSGGGGSQSVLTQPASVSGSPGQSITISCTGTSSDVGGYNYVSWYQQHPGKAPKLMIYEGSKRPSGISNRFSGSKSGNTASLTISRLQAEDEADYYCSSYTTRSTRVFGGGTKLTVLG
7 | no binding | GMBC669 (scFv) scFv: QVQLVESGGALVKPGGSLRLSCAASGFTFSDAWMNWVRQAPGKGLEWVGRIKSKGSGGTIDYAAPVKDRFTISRDDSKNTLYLQMNSLKTEDTALYYCTWDWDFYYGMNVWGQGTLVTVSSGGGGSGGGGSGGGGSQSVLTQPPSASGSPGQSVTISCTGTSSDVGGYNYVSWYQQHPGKAPKFMIYDVSKRPSGVSNRFSGSKSGNTASLTISGVQAEDEADYYCSSYTSASTVIFGGGTKLTVLG
8 | no binding | GMBC689 (scFv) scFv: QVQLVESGGGLVKPGGSLRLSCAASGFTFSDAWMNWVRQAPGKGLEWVGRIKSKGSGGTIDYAAPVKDRFTISRDDSKNTLYLQMNSLKTEDTALYYCTWDWDFYYGMNVWGQGTLVTVSSGGGGSGGGGSGGGGSQSVLTQPPSASGSPGQSVTISCTGTSSDVGGYNYVSWYQQHPGKAPKFMIYDVSKRPSGVSNRFSGSKSGNTASLTISGVQAEDEADYYCSSYTSASTVVFGGGTKLTVLG
9 | no binding | GMBC678 (scFv) scFv: EVQLVESGGGLVKPGGSLRLSCAASGFTFSDAWMNWVRQAPGKGLEWVGRIKSKGSGGTIDYAAPVKDRFTISRDDSKNTLYLQMNSLKTEDTALYYCTWDWDFYYGMNVWGQGTLVTVSSGGGGSGGGGSGGGGSQSVLTQPPSASGSPGQSVTISCTGTSSDVGGYNYVSWYQQHPGKAPKFMIYDVSKRPSGVSNRFSGSKSGNTASLTISGVQAEDEADYYCSSYTSASTVIFGGGTKLTVLG
10 | no binding | GMBC610 (scFv) scFv: QVTLKESGAEVKKPGASVKVSCKTSGFTFGAYYIHWVRQVPGQGLEWMGWIDPNNGGTNYAQKFQGRVTMTRDMSTTTTYMEVSGLHSDDTAVYYCARARVATILEYWGRGTLVTVSSGGGGSGGGGSGGGGSPELTQDPAVSVALGQTVRITCQGDSLRSYYASWYQQKPGQAPVLVIYGKNNRPSGIPDRFSGSSSGNTASLTITGAQAEDEADYYCNSRDSSGNHVVFGGGTKLTVLG
11 | no binding | GMBC655 (scFv) scFv: EVQLVESGGGLVKPGGSLRLSCAASGFTFSSYGMSWIRQAPGKGQEWVSAISGSGGSAYYADSVKGRFTISRDNSKNTLYLQMNSLRAEDTAVYYCAKAYSSEDYWGRGTMVTVSSGGGGSGGGGSGGGGSNIQMTQSPSFLSASVGDRVTITCRASQGINNYLAWYQQKPGRAPKLLIYAASSLQSGVPSRFSGSGSGTDFTLTISSLQPDDFATYYCQQYSNYPLTFGGGTKLEIKR
12 | no binding | GMBC691 (scFv) scFv: EVQLVQSGAEVKKPGASMKVSCKTSGDTFNGFYVHWVRQAPGQGLEWMGRINPNGGGTNYAQKFQGRVTMTRDTSMNTAYMELRSLRSDDTAVYYCARDLFYDFWSDYYRNDQYYYMDVWGRGTLVTVSSGGGGSGGGGSGGGGSSELTQDPAVSVALGQTVRITCQGDSLRSYYASWYQQKPGQAPVLVIYGKNNRPSGIPDRFSGSSSGNTASLTITGAQAEDEADYYCNSRDSSGNHVVFGGGTKLTVLG
13 | no binding | GMBC696 (scFv) scFv: EVQLVQSRAEVKKPGASVKVSCKTSGYTFNGYYIHWVRQAPGQGLEWMGWIDPINSVTNYAQNFQGRVTMTRDTSINTAYMELSRLTSDDTAVYYCARARVSTILQYWGQGTLVTVSSGGGGSGGGGSGGGGSSELTQDPAVSVALGQTVRITCQGDSLRSYYASWYQQKPGQAPVLVIYGKNNRPSGIPDRFSGSSSGNTASLTITGAQAEDEADYYCNSRDSSGNHVVFGGGTKLTVLG
14 | no binding | GMCC101 (scFv) scFv: EVQLVQSGAEVKKPGSSVKVSCKASGGTFRTYAITWVRQAPGQGLEWMGGIIPISATANYAQKFQGRVTITADESMSTAYMELSSLRSEDTAVYYCARDREPHYFDNWGRGTMVTVSSGGGGSGGGGSGGGGSALPVLTQPPSVSEAPRQGVTISCSGSSSNIGNNAVSWYQQLPGQAPKLLIYYDDLLPSGVSDRFSASKSGTSASLAISGLQSEDEADYYCAAWDDSLNGVIFGGGTQLTVLS
15 | no binding | GMBC608 (scFv) scFv: EVQLVQSGGGLVQPGRSLRLSCAASGFTFSDSYMTWIRQAPGEGLEFVSYISSGSSTTYYTDSVKGRFTISRDNSKNTLYLQMNSLRPEDTAVYYCARRSISSDYYSYYLDVWGKGTLVTVSSGGGGSGGGGSGGGGSSELTQDPAVSVALGQTVRITCQGDSLRSYYASWYQQKPGQAPVLVIYGKNNRPSGIPDRFSGSSSGNTASLTITGAQAEDEADYYCNSRDSSGNHVVFGGGTKLTVLG
16 | no binding | GMBC673 (scFv) scFv: EVQLVESGGGLVQTGGSLRLSCAASGFPIGSHWMSWVRQSPGKGLEWVASIKQDGREKHFVDSVKGRFGISRDNAKDSLYLQMNSLRIEDTAVYYCARETYGGYYYYFMDVWGRGTLVTVSSGGGGSGGGGSGGGGSSELTQDPAVSVALGQTVRITCQGDSLRSYYASWYQQKPGQAPVLVIYGKNNRPSGIPDRFSGSSSGNTASLTITGAQAEDEADYYCQTWGPGIRVFGGGTKLTVLG
17 | no binding | GMBC683 (scFv) scFv: EVQLVESGGGLVQPGRSLRLSCAASGFTFSSYGMHWVRQAPGKGLEWVAVISYDGSNKYYADSVKGRFTISRDNSKNTLYLQMNSLRAEDTAVYYCAKRAAAGTLDYWGQGTTVTVSSGGGGSGGGGSGGGGSSELTQDPAVSVALGQTVRITCQGDSLRSYYASWYQQKPGQAPVLVIYGKNNRPSGIPDRFSGSSSGNTASLTITGAQAEDEADYYCNSRDSSGNHVVFGGGTKLTVLG
18 | no binding | GMCC105 (scFv) scFv: QVQLVQSGGGVVQPGRSLRLSCTASGFNLGSHGMHWVRQAPGKGLEWVAVIGFDGTTKYYVDSVKGRFTISRDNSRNTLSLQMNSLRAEDTAVYYCVREDYYYDSSGYYFDYWGRGTLVTVSSGGGGSGGGGSGGGGSALSSELTQDPFVSVALGQTVRIACRGDSLRDSYASWYQQKPGQAPRLLVYGNNLRPSGIPGRFSGSSSGDTASLSITETQAGDEADYYCSSRGNSTSRLYVFGTGTKLTVLG
19 | no binding | GMBC681 (scFv) scFv: QVQLVQSGGGVVQPGGSLRLSCAASGFTFSSYGMHWVRQAPGKGLEWVAFIRYDGSNKYYADSVKGRFTISRDNSKNTLYLQMNSLRAEDTAVYYCAKGGTGYFDLWGRGTLVTVSSGGGGSGGGGSGGGGSDIQMTQSPSTLSASIGDRVTITCRASEGIYHWLAWYQQKPGKAPKLLIYKASSLASGAPSRFSGSGSGTDFTLTISSLQPDDFATYYCQQYSNYPLTFGGGTKLEIKR
